From paper PMC11301380, “Non-invasive strategy: Developing a topical IL-4Rα-specific nanobody for the treatment of allergic airway diseases” (Materials Today Bio, 2024)
Changes are numbered by the printed parent chain. Numbers in names are those of the source.

B1: nanobody H5 (VHH)
VHH: QVQLVESGGGSVQAGGSLRLSCAASGSISSITYLGWFRQAPGKEREGVAALSTSSGTTYYADSVKGRFTVSLDNAKNTVYLQMNSLKPEDTALYYCAAADKGREYTLARAKYWYWGQGTQVTVSA
notes: synthetic nanobody selected from a library on the convex scaffold (pRDV containing Sb-convex, Addgene 132696) with randomised CDR3; also called H5^WT; H5 monomer; source: E. coli BL21 (pSBinit), periplasmic extract, purified (TALON Superflow)
B2: H5^A110Y (VHH)
VHH: B1 VHH with A110Y
notes: also called H5 mutant A110Y; source: E. coli BL21 (pSBinit), periplasmic extract, purified (TALON Superflow)
B3: H5^E104R (VHH)
VHH: B1 VHH with E104R
notes: also called H5 mutant E104R; source: E. coli BL21 (pSBinit), periplasmic extract, purified (TALON Superflow)

molecular target: T1, extracellular domain of human IL-4Rα (human, UniProt P24394, biotin (Biotin-labeled IL-4Rα on the Biacore sensor chip)); test: SPR; Biacore T200; biotin-labeled IL-4Rα immobilised on the sensor chip (BR100531); nanobody 15.625-2000 nM; running buffer PBS pH 7.4; 1:1 kinetic binding model; conditions: both partners purified
T1 construct: interleukin-4 receptor alpha, human, extracellular domain; Source and limits of the recombinant protein may stand in the materials list of the supplement; Biotin labelling is told only for the Biacore T200 experiment; also called IL-4 Receptor alpha
T1 sequence (P24394 26-232): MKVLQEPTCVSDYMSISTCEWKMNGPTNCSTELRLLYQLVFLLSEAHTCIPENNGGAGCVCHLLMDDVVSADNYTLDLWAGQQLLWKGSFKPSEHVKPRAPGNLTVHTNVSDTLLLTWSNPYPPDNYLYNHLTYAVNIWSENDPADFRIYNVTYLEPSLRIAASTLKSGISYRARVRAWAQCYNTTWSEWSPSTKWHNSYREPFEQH

Kd [nM] | Binder
1420 | B1
708 | B2
1030 | B3
